Measurements from the supplement of paper PMC9170038.

System: MS2 coat protein
Experiment: apparent KD of MS2 coat protein; designed switch direction (-1 OFF switch, 1 ON switch): -1; higher = weaker reporter binding
Summary of the method: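 The apparent KD reported per design is the median over clusters of curve fits to normalised cluster fluorescence. The RNA switches were transcribed on Illumina chips by stalled E. coli RNA polymerase. SNAP-549-labelled MS2 coat protein was titrated from 0.7 or 1.5 nM, doubling up to 3 µM, in Tris-HCl pH 7.5 buffer containing KCl, MgCl2, BSA, DTT, tRNA and Tween-20, with no input, 200 uM small-molecule ligand, or an oligonucleotide input.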

[1] = input ligand: microRNA oligo, concentration not stated
[2] = Eterna round: R95, input ligand: FMN 200 uM
[3] = Eterna round: R95, input ligand: microRNA oligo, concentration not stated
[4] = Eterna round: R95, input ligand: none

Sequence | apparent KD of MS2 coat protein [1] [nM] | apparent KD of MS2 coat protein (input ligand: FMN 200 uM) [nM] | apparent KD of MS2 coat protein (input ligand: none) [nM] | apparent KD of MS2 coat protein [2] [nM] | apparent KD of MS2 coat protein [3] [nM] | apparent KD of MS2 coat protein [4] [nM]
UUGUUAUAUGUAGGAUAUGCGUAUUAUUGUUAUGCAGAAGGACAUGAGGAUCACCCAUGUAUAUUAUUGUUAUAUAUUAUAUAU [Title] (Eterna round: R96, puzzle: Exclusion NG 1) | 20.3 |  |  |  |  | 
UUGUUCCGUGUAGGAUAUUGGUCUCCCUCGGGCCGAGAAGGACAUGAGGAUCACCCAUGUAUGUUAUUAUCGCGCGUGGCGCAU [Design 91] (Eterna round: R96, puzzle: Exclusion NG 1) | 21.6 | 112 | 37.9 |  |  | 
UUGUUGUAUGUAGGAUAUGCGUGUUAUUAUUAUGCAGAAGGACAUGAGGAUCACCCAUGUAUAUUAUUAUUAUAUGUUAUAUAU [Title] (Eterna round: R96, puzzle: Exclusion NG 1) | 17.6 |  |  |  |  | 
UUGUUGUGUGUAGGAUAUGCGUAUUAUUAUUAUGCAGAAGGACAUGAGGAUCACCCAUGUGUAUUAUUAUUAUAUAUUAUAUAU [Title] (Eterna round: R96, puzzle: Exclusion NG 1) | 21.8 | 43.3 | 25 |  |  | 
UUGUUGUGUGUAGGAUAUGCGUGUUAUUAUUAUGCAGAAGGACAUGAGGAUCACCCAUGUGUAUUAUUAUUAUAUAUUAUAUAU [Title] (Eterna round: R96, puzzle: Exclusion NG 1) | 17.1 | 23.8 | 23.5 |  |  | 
UUUAAAACAUAGGAUAUCGAAAAUAUCAUUUAACGAGAAGGAUGAACAUGAGGAUCACCCAUGUGGUAUCAUGG [Mat - Exclusion 6 - JL Mod - D16] (puzzle: Exclusion 6) |  |  |  | 320 | 580 | 313
UUUAACGAUGAGGAUAUAUGAUAUCAAAGCAUCAUAGAAGGCAUCACAUGAGGAUCACCCAUGUGAUCUUCUUG [Mat - Exclusion 6 - JL Mod - D28] (Eterna round: R97, puzzle: Exclusion 6) |  | 94 | 29.4 |  |  | 
UUUAAGGAAGGAUAUACAAUAUAAAUAAUAUCCUCAUUAUUACAUGAGGAUCACCCAUGUAGAAGGUCCAAUUU [Mat - Exclusion 2 - Mod of Hog - D89] (puzzle: Exclusion 2) |  |  |  |  | 137 | 
UUUAAGUAAGGAUAUGCGAGCCACGGAAAUAAAACGUGGAGGUAGAAGGUACAUGAGGAUCACCCAUGUAAAAC [Mod of Anonveat 23 - Jieux - Exclusion 4] (Eterna round: R97, puzzle: Exclusion 4) |  | 21.8 | 23.1 |  |  | 
UUUAAUUGUCAGAUGGGUGACAUGAGGAUCACCCAUGUCACAAGCUUUUUGUUCGUCUUAUAAUUAACCCAUCUGAC [Stov1/11-B1] (Eterna round: R97, puzzle: Sensor, turn-off variant 1) |  | 14 | 13.8 |  |  | 
UUUAAUUUAAUUAAGAUCACAUGAGGAUCACCCAUGUAAUUAUAGGAUAUCAGCUCGAUUAGAGCUGAGAAGGAUAAUUACAUA [ExNG3/5-A1] (Eterna round: R96, puzzle: Exclusion NG 3) | 75.1 | 105 | 58.1 |  |  | 
UUUAAUUUAAUUAAGAUCACAUGAGGAUCACCCAUGUAAUUAUAGGAUAUCAGCUCGUUUAGAGCUGAGAAGGAUAAUUACAUA [ExNG3/5-A2] (Eterna round: R96, puzzle: Exclusion NG 3) | 23.8 |  |  |  |  | 
UUUAAUUUUUUUUUUUUACAAGCUUUUUGCUCGUCUUAUACAUGAGGAUCACCCAUGUAAAUGGGAAGUAAAUUAUC [JMF 50] (puzzle: Sensor v3, turn-off variant 2) |  |  |  | 59.5 | 207 | 93.1
UUUAAUUUUUUUUUUUUACAAGCUUUUUGCUCGUCUUAUACAUGAGGAUCACCCAUGUAAGUGAGGGAUAAAUUAUC [JMF 40] (puzzle: Sensor v3, turn-off variant 2) |  |  |  | 15.6 | 22.8 | 15.6
UUUAAUUUUUUUUUUUUACAAGCUUUUUGCUCGUCUUAUACAUGAGGAUCACCCAUGUAAGUGGAGGAUAAAUUAUC [JMF 33] (puzzle: Sensor v3, turn-off variant 2) |  |  |  | 24.7 | 23.8 | 24.1
UUUAAUUUUUUUUUUUUACAAGCUUUUUGCUCGUCUUAUACAUGAGGAUCACCCAUGUAAGUGGGAAGUAAAUUAUC [JMF 54] (puzzle: Sensor v3, turn-off variant 2) |  |  |  | 48.3 | 184 | 83.8
UUUAAUUUUUUUUUUUUACAAGCUUUUUGCUCGUCUUAUACAUGAGGAUCACCCAUGUAGAUGGAGGAUAAAUUAUC [JMF 32] (puzzle: Sensor v3, turn-off variant 2) |  |  |  | 14.4 | 28.9 | 15.2

Sequence | apparent KD of MS2 coat protein [1] [nM] | apparent KD of MS2 coat protein (input ligand: FMN 200 uM) [nM] | apparent KD of MS2 coat protein (input ligand: none) [nM] | apparent KD of MS2 coat protein [2] [nM] | apparent KD of MS2 coat protein [3] [nM] | apparent KD of MS2 coat protein [4] [nM]
UUUAAUUUUUUUUUUUUACAAGCUUUUUGCUCGUCUUAUACAUGAGGAUCACCCAUGUGAGUGGAAGAUAAAUUAUC [JMF 11] (puzzle: Sensor v3, turn-off variant 2) |  |  |  | 15.1 | 15 | 17.9
UUUAAUUUUUUUUUUUUACAAGCUUUUUGCUCGUCUUAUACAUGAGGAUCACCCAUGUGGAUGGGAGAUAAAUUAUC [JMF 19] (puzzle: Sensor v3, turn-off variant 2) |  |  |  | 30.9 | 164 | 36.4
UUUAAUUUUUUUUUUUUACAAGCUUUUUGCUCGUCUUAUACAUGAGGAUCACCCAUGUGGGUAAAGGAUAAAUUAUC [JMF 25] (puzzle: Sensor v3, turn-off variant 2) |  |  |  | 31.6 | 39.1 | 34.1
UUUAAUUUUUUUUUUUUACAAGCUUUUUGCUCGUCUUAUACAUGAGGAUCACCCAUGUGGGUGAAAAGUAAAUUAUC [JMF 44] (puzzle: Sensor v3, turn-off variant 2) |  |  |  | 22.4 | 18.7 | 33.1
UUUAAUUUUUUUUUUUUACAAGCUUUUUGCUCGUCUUAUACAUGAGGAUCACCCAUGUGGGUGGAAAAUAAAUUAUC [JMF 92] (Eterna round: R96, puzzle: Sensor v3, turn-off variant 2) | 232 | 583 | 472 |  |  | 
UUUAAUUUUUUUUUUUUACAAGCUUUUUGCUCGUCUUAUACAUGAGGAUCACCCAUGUGGGUGGAAAAUAAAUUAUC [JMF 92] (puzzle: Sensor v3, turn-off variant 2) |  |  |  | 33.9 | 45 | 88.4
UUUAAUUUUUUUUUUUUACAAGCUUUUUGCUCGUCUUAUACAUGAGGAUCACCCAUGUGGGUGGAGGGUAAAUUAUC [JMF 89] (puzzle: Sensor v3, turn-off variant 2) |  |  |  | 35.9 | 63.6 | 67
UUUACAAGCUAUUGAUCCCACAUGAGGAUCACCCAUGUUCAUGGCCGUGAGGCUAGGUAUACAAUUGCUCGUCUUAU [mod-JR] (Eterna round: R97, puzzle: Sensor, turn-off variant 1) |  | 59.8 | 78.7 |  |  | 
UUUACAAGCUUUAGAUCCCACAUGAGGAUCACCCAUGUUGCUGCCGGUGACGGUAGCAUAACUAAUGCUCGUCUUAU [JL TOV1 3.62] (Eterna round: R97, puzzle: Sensor, turn-off variant 1) |  | 123 | 235 |  |  | 
UUUACAAGCUUUUGAUCCCACAUGAGGAUCACCCAUGUUGCUGCCGUGAGGUAGCAUUUAACAAAUGCUCGUCUUAU [JL TOV1 3.54] (Eterna round: R97, puzzle: Sensor, turn-off variant 1) |  | 404 | 1380 |  |  | 
UUUAGUUCAGGAUAUGUAGAAAUUAACAUGAGGAUCACCCAUGUCGAUCCUGAAUUAACUACAGAAGGGAACAUUU [Mod of Brourd 6 - Jieux - Exclusion 5] (Eterna round: R97, puzzle: Exclusion 5) |  | 50 | 14.2 |  |  | 
UUUAGUUCAGGAUAUGUAGAAUUUAACAUGAGGAUCACCCAUGUAGAUCCUGAAUUAACUACAGAAGGGAACAUUU [Exclusion 5: 2:a mod2] (Eterna round: R97, puzzle: Exclusion 5) |  | 69.1 | 15.2 |  |  | 
UUUAGUUCAGGAUAUGUAGACAUUAACAUGAGGAUCACCCAUGUAGAUCCUGAAUUGACUACAGAAGGGAGCAUUU [Mod of Brourd 9 - Jieux - Exclusion 5] (Eterna round: R97, puzzle: Exclusion 5) |  | 88.9 | 23.9 |  |  | 
UUUAUAAUAAGAUCAAUUAAUUAACAUGAGGAUCACCCAUGUGAGGAUAUCAGCUCGAUUAGAGCUGAGAAGGCACAAUAUAAG [ExNG3/17-B1] (Eterna round: R96, puzzle: Exclusion NG 3) | 36.3 | 79.3 | 43.3 |  |  | 
UUUAUAAUAAGAUCAAUUAAUUAACAUGAGGAUCACCCAUGUGAGGAUAUCAGCUCGUGUAGAGCUGAGAAGGCACAAUAUAAG [ExNG3/17-B3] (Eterna round: R96, puzzle: Exclusion NG 3) | 36.2 |  |  |  |  | 
UUUAUAAUUUCAAUCUUCGCUGGCGAACUUACGCCAGCCACAUGAGGAUCACCCAUGUUUUUUGUUCGUUUUAUUCU [Gelaoren] (puzzle: Sensor v3, turn-off variant 2) |  |  |  | 19.5 | 66.6 | 21.1
